Test: soluble on expression in E. coli; label from the status in PepcDB or PDB records

| Sequence | soluble on expression in E. coli |
| --- | --- |
| MNEKQKLESGQVHPSDKKSEKDYSKYFEAVYIPPSLKDAKKRGKEAVTYHNDFKISEQFKGLGDGRKFYIRTYGCQMNEHDTEVMAGIFMALGYEATNSVDDANVILLNTCAIRENAENKVFGELGHLKALKKNNPDLILGVCGCMSQEESVVNRILKKHPFVDMIFGTHNIHRLPELLSEAYLSKEMVVEVWSKEGDVIENLPKVRNGKIKGWVNIMYGCDKFCTYCIVPYTRGKERSRRPEDIIQEVRRLASEGYKEITLLGQNVNAYGKDFEDMTYGLGDLMDELRKIDIPRIRFTTSHPRDFDDRLIEVLAKGGNLLDHIHLPVQSGSSEVLKLMARKYDRERYMELVRKIKEAMPNASLTTDIIVGFPNETDEQFEETLSLYREVEFDSAYTFIYSPREGTPAAKMKDNVPMRVKKERLQRLNALVNEISAKKMKEYEGKVVEVLVEGESKNNPDILAGYTEKSKLVNFKGPKEAIGKIVRVKIQQAKTWSLDGEMVGEAIEVKLEHHHHHH | soluble |
| MNEKVFRDPVHTYIHVNNQVIYDLINTKEFQRLRRIKQTSTTSFTFHGAEHS | not soluble |
| MNELLAEMAAVSSRRKQSKPRRMSGEGDAMMSPIDLSTKSFDENNCEKGAGGALPLEDRSNILPHFSVPFANPQQFLSLCAQLGNSSSRNVSSTASTTSSCPIQSCSQSFSSPAALTWHVLDAHEDEQEIFSCDVCTTTFSNGQDIREHKCQKTLASRSTSVPPSTIPSSVCFLSTPTTPCLQFSINESIGTSEIREEDEEEDMDVEDGEHVANQLFGHLLQKSDDKSKMASLFNHAFPPFAAFPNMPPPFLMRQPFDPRADVFAAGRHDNDDDWEALMEISTSDEAEKIRALVGDKAVPTTDPNQCILCRRVLSCKSALQMHYRTHTGERPFKCKICQRAFTTKGNLKTHMGVHRSKHSFRGLPISLPPQLAAMHQHQHQIAPPQRIHIHNPPTSAASAAAAVAQIQASQQCPICQQRFLNAGELAVHITEHRNSLTQPPRVMPTPTTTRVQTFPFVPFFTTPPSLNATDMSTQFNLANILSAQLKNDSSPNTDTSSVEEKITRDDPPKMASLSPSNSSDSSSSVRQDILESSEFEEKLKKLEEPPILEQQVSTTPNPKNENPLLAMQKMWAETEPPPPRQMPVLSKHQCGVCFKHFSSSSALQIHMRTHTGDKPFKCDMCGRAFTTRGNLKVHMGTHSWQQSPSRRGRRIFDVASSVTEKPMLQSPILPTSGAPGASPLAMLGPNGLSGLEMMMMLWRTVCSVCQKVCQSPNELEQHLKEHLNNGSSAAPTPLASAATPPPS | not soluble |
| MNETIRRILAESGTKTSKIRKLLLIGLSHREIADLLTRGNRGFVWNVYKRMRDEGLLPASQTATVLRPEPDYTFNRCFGVEIEAYNCPRQTLTDALREAGIPVEIGSRNAETNSNWKLTTDGSLEGSHTFELVSPILCGEQGLEVLERVCWVLDAYNVKINSSCGVHVHFNAGDFNLTTWQNLILSYKHAETEIDKFMPASRRGNRNTYCRSLRGFSDEDIRSAESIESLQRLFGSRYMKVNLEAYSRHRTVEFRQHSGTINFTKIENWVRFLGRMIIFASTASLPAGIRLEDFPFLGEKQKLYYKLRTKKLMV | not soluble |
| MNFNTILEEILIKRSQQKKKTSPLNYKERLFVLTKSVLSYYEGRAEKKYRKGVIDISKIKCVEIVKNDDGVIPCQNKFPFQVVHDANTLYIFAPSPQSRDRWVKKLKEEIKNNNNIMIKYHPKFWADGSYQCCRQTEKLAPGCEKYNLFESSIRKTLPPAPEIKKRRPPPPIPPEEENTEEIVVAMYDFQATEAHDLRLERGQEYIILEKNDLHWWRARDKYGSEGYIPSNYVTGKKSNNLDQYEWYCRNTNRSKAEQLLRTEDKEGGFMVRDSSQPGLYTVSLYTKFGGEGSSGFRHYHIKETATSPKKYYLAEKHAFGSIPEIIEYHKHNAAGLVTRLRYPVSTKGKNAPTTAGFSYDKWEINPSELTFMRELGSGLFGVVRLGKWRAQYKVAIKAIREGAMCEEDFIEEAKVMMKLTHPKLVQLYGVCTQQKPIYIVTEFMERGCLLNFLRQRQGHFSRDMLLSMCQDVCEGMEYLERNSFIHRDLAARNCLVNEAGVVKVSDFGMARYVLDDQYTSSSGAKFPVKWCPPEVFNYSRFSSKSDVWSFGVLMWEIFTEGRMPFEKNTNYEVVTMVTRGHRLHRPKLASKYLYEVMLRCWQERPEGRPSFEDLLRTIDELVECEETFGR | soluble |
| MNFPWRDGNRVELLINGEEYFPRLFQCIAEARREILLETFIIFEDEVGRQLQEALSAAAERGVEVQVTVDGYGTASLSPDYLARLTASGVRVHLFDPRPRLLGMRTNLFRRLHRKLVVIDRRQAFVGGINYGEDHLVRRGNMAKQDYAVRVEGPVVRDIRQACLALLEPDADYPPLRPSGAGQPARVRLVIRDNDQSSDDIEREYLQAIRQARRRLLIANAYFFPGYRLLRELRDAARRGVRVDLVLQGMPDMPLVRLCSRLLYDYLLREGVRIHEYCQRPLHGKVAVIDDDWSTIGSSNLDPLSLSLNLEANLVIRDVAFNGQLYQHLRELARRHCRRISRRHARRGYWWRAPLIFLGFHFSRHFPAIAGWVPAHLPRLKSLEPRPSRRWQERQGQRGNP | not soluble |
| MNFRPIAGIDVGKFFSEMAILSPSNEVIARMKIRHDSSTDVERAVELLKKTEKDFDSRPFVVMESTGHYHKILFHSLYKAGFEVSVINPIQTDSIKNIGIRKVKNDKVDARKIALLYRFQELKIQYPERYGCWTLARNKACEVWYNRKGLAAALR | not soluble |
| MNFTDTHCHLADPALRENLPHILTAARKVGVKRFIVPATRPQDWQDVADLAEMPSEHGQIRIALGIHPWFSDGIAERDFVRLETMLAHYPQAWVGEIGLDFYDKTQTSQQRERQIQVFVRQLEIAQTLRRRVIIHNLKATADIAAAVKQTGFAQGGIVHAFSGSAEEARVLTKLGFKIGIGSLLLNPNARKVRDTLKALNDGDFVLETDSPFMLKKEINTPANIPGIAKIAAEIRGTCVEEIAKVTERNADALLGR | not soluble |
| MNFVTLTSDEFNAFTTKHFSHYTQSAIHYNHRVDLKGDVHLVGVKDDNGQVIAGCLLTEARTLKFFKYFYTHRGPVMDYTNQSLVAFFFKALTSYLKKHNCLYVLVDPYLIENLRNADGEIVKSYDNRAFVRTMDKLGYKHQGFPVGYDSMSQIRWLSVLDLKDKTEDQLLKEMDYQTRRNIKKTYDIGVKTKTLTIDETQTFFDLFHMAEEKHGFKFRELPYFEEMQKLYDDHAMLKLAYIDLNEYLKTLQLKQQQLTAELSGVEEALEESPNSKKNKTKRTQLEQQLNSNKRKIDNTIEQIEQDGAVLNLASALFIYNEHEVYYLSSGSNPKYNAYMGAYHLQWEMIKFAKAHHIDRYNFYGITGDFSESSEDYGVQQFKKGFNAHVEEYIGDFIKPIKPLLYKVQTYLNHKRR | not soluble |
| MNGAIFPWREDSRFQLLIDGPAFFPRMIAAIDRAEQQVDLELYLVEAGACADAVVRALVEAGRRGVIVRCLFDDFGSKAFDAGLRKQLTDAGVILRFYNPIHWRRGVRNFYRDHRKILVVDKALAVVGGTGVTDEFWEPDKDVSQWHEVMVEIAGPLVLDWQALFDRQFHANARRFAWRPKQNFGLDHLPKAPVTGEGLGRVAYADSRQHRDILQSLVRTLHSGQKRIWLATPYFLPTWKVRRALRSAAARGVDVRLLLTGPRTDHPSVRYAGHRYYPRLLRAGVKVFEYQPCFLHLKMVLIDDWVSIGSCNFDHWNLHFNLEANLEAHDPGLTRDVAASFEKDFALSTEITLEDWKARPLWRRVKQRLWGWIDRLVVNLLDQRN | not soluble |
| MNGKFDKYEYLQDLMRRRGFAWGSFEIYGGSRGFYDYGPLGATIKRKIERKIREAFIREGFFEIETPDITPEQVFIASGHVEKFVDPVVECKKCGMRFRADHLIEEFLGIDVEGKSAEEMSRIIREHGLKCPECGGELSDVFYFNLMFETYIGPYKDKKAYLRPETAQGIFVNFKRLNAFARNKLPFGVFQIGKAYRNEISPRQGMIRLREFTQAEAEIFFNPNETEHPHFNEVKHEKLKLYPIENQLKELGEVEVTAEEAVKRGYVMNSFFAYYMVMIKKILLDIGIPEDKIRFRQQLPEERAHYSADTWDAEVYSERFGWVECVGLAYRTDYDLSRHMKMSGADLTVMIHYDKPKVVKRIQVSLNMKKVGPKLKADAKKINEIIKSMDQKELEKLVKDLNEKGKVTIEGYELSKEDFIVKEVEEKITGEKIVPHVLEPSFGIDRPFYLLLENSLTVDEDGRIYLKIKKDMAPIEVAVLPLVAKEPLTTIAYEIYRTLQKEGFIVVYDEKDSIGKRYMRYDEIGTPYCVTVDNQTPEDGTVTIRDRDTREQIRVKIEELPRKLKELIFG | soluble |
| MNHQSYSAPTQAVAANTHLIYSTEQGGAVSPTPQKSIGSIADYDPMNGQWGTAAAQPRNSEKLGYLKAQVDKGPARFCADFAGAPPPSSNSISSTSPHSTLSSPQSTISPTGKAGFAVKAIYDYAAADKDEISFLEGDIIVNCEKIDDGWMTGTVQRTLQWGMLPANYVQPHKLPTGLHRLS | not soluble |
| MNHTSFRAIVVNETENHQFVRKVVEREVSSLPEGDVFIQVHYSSLNYKDALSATGNKGVTRTYPHTPGIDAAGVVVSSEDATIKAGDQVIVTGYDLGMNTSGGFGEYIRVPSSWVVPLPEGMSLKESMMYGTAGFTAALSVYKLIGAGVKPSMGDVLVTGATGGVGSVAVSILSKLGFNVVGATGKMEEEDMLLRLGAKKVIHRAELNDESGSPMLKGIYAGVIDTVGGHMLETALKTVKYGGCVTTCGNVAGQELQTTVYPFILRGISLLGIDSVQCPVDVRRDVWTLLAKEWGNKELLSYTEECTLEELEKKFALILQGKLKGRTVVKI | not soluble |
| MNIEEAKKLIDKQSIGKGGVGDIPVVKTHIVKVLLDQIDQPQPEVPRFVADWYEKHKDSLECDLYLYHMSIYDEEVEKDDFYYWMQTSKNPVYTLINMHQFGYTIQKEKLYTVEIPNPNERQLSFVLMRQLSGNVSIKVMHRDNLDLLKTDNDLQLTESEIRKDFDWAWQFREEVVE | not soluble |
| MNIEEIKIMGGFNKFGESEKVKELVVKRGEIFGVVGPTGSGKSNLISDIEQLAQGDTPSNRKILVNGNVPDTEMRRDPRKRRIAQLSQNMNFLADMTVEEFLIMHAKSRGMNSEGIVDKVIKLANNLTGEPIEKDYNLTILSGGQSRSLMVADVAVISDSPIVLIDEIENAGIKKHEALELLAGCGKIVMVITHDPVLALMTTRRVVMRNGGMNEIIETTE | not soluble |
| MNIIGLDISKDTIDATLHKTNGSIHYIKFKNNDDGLKQFRLWIKGNRIRKVYIGMEATGIYYEKAADMLSSYYTVYVINPLKIKDYGKSRFNRTKTDKADSNLIADYIKRHQDTLIPYQIPKNKALQKLINLKNQLHQHQKQIKNRLHSTEEDFIRNIHQDLIDTIQDKMEQVKIAISEQIKKQTDNNHYRNLQTIPSIGKDTASVLYAQLTEKHFKTANQFVSYAGLNPAIIQSGTSVRGRGRLSRYGNRRLKSTLYMPALCAYRFNAFPKLINNLKKAGKPKMVIIVAIMRKLAKLAYYIVKTGQPYDAERHRLNQ | not soluble |
| MNILLANPRGFCAGVDRAISIVELALEVHGAPIYVRHEVVHNRFVVDDLKAKGAIFVEELDEVPDSAIVIFSAHGVSQAVRQEAKRRGLKVFDATCPLVTKVHMQVARASKKGTKAILIGHQGHPEVIGTMGQYYNEQAGIFLVETVEDIANLPIHHHEDLTFMTQTTLSVDDTSGMIEALKNKYPAIQGPRKNDICYATTNRQQAVRELAKQAQLVLVVGSKNSSNSNRLAELASRMGVLAKLIDGPQDILPEWLDNVETIGITAGASAPEILVQSVVAHLQTLGATSVANLVGCEENMVFEVPKELRVREVKMAGDPLEHHHHHH | not soluble |
